From the DeepSol protein solubility set come the findings set out here.

This data set can be described thus: soluble on expression in E. coli; label from the status in PepcDB or PDB records.
“MAVKINDLTLPKEKLENEYQVVQVSLWQKDGEALGWTYECVLPKLRFEKISVKVKSEAPVITKETLDEKGMAIVRFDNLMITPWGRVNGQFVSYGLTATAYKATLVPNK”: the “soluble on expression in E. coli” value is recorded as “not soluble”.
Regarding “MSLKQYKILLIVADGLGDRPVSKLNGLTPLEAANKPAITDLLKNSMIGLMDPISPGIIPGSDTSHLSIFGLDPHVYYRGRGAFEALGAGATLSHGDVAFRGNFATVNNDLVVVDRRAGRKLEEGEQLVKELNEKIKEINDVKIKFYKGTEHRIAVVLSGKGISDKVSDTDPHHEGLKVLESKPLEDSNEAIRTAEIINILTRKVFDVLNSSEINKRRIEQGEKPANIVLLRGAAHYVKLPPFSSYTKLKAAAVSATALIKGICRELGMNVITPSGATGGIDTNYNAKAKAAIELLKENDFVFLHIKATDAASHDGLVEEKVKAIERIDRVIGAIIDNIGRDNLILMFTGDHVTPVEIKEHTGDPVPVLLYVPYPIINDNVGDFNEKEARKGSLRIRGLDVTNILLNYSNRAEKYGSEGHHHHHH”, the “soluble on expression in E. coli” value is listed as “soluble”.
The entry for “ISNHPAPEYWCSIAYFEMDVQVGETFKVPSSCPIVTVDGYVDPSGGDRFCLGQLSNVHRTEAIERARLHIGKGVQLECKGEGDVWVRCLSDHAVFVQSYYLDREAGRAPGDAVHKIYPSAYIKVFDLRQCHRQMQQQAATAQAAAAAQAAAVAGNIPGPGSVGGIAPAISLSAAAGIGVDDLRRLCILRMSFVKGWGPDYPRQSIKETPCWIEIHLHRALQLLDEVLHTMPIADPQPLD” is “soluble”; for “AHHHHHHGSNRKLDEFLGSNDPPATKEENQKVKKKQRLRATNLDEFLPEDHINFFKNLRIGSKKIARKKIEEL” it is “not soluble”; for “GSMQRASRLKRELHMLATEPPPGITCWQDKDQMDDLRAQILGGANTPYEKGVFKLEVIIPERYPFEPPQIRFLTPIYHPNIDSAGRICLDVLKLPPKGAWRPSLNIATVLTSIQLLMSEPNPDDPLMADISSEFKYNKPAFLKNARQWTEKHARQKQKADEEEMLDNLP” it is “soluble”.
Regarding “MSKKLLIKTWGCQMNEYDSSKMADLLNAANGYELTEEPEEADVLLLNTCSIREKAQEKVFHQLGRWKTLKDKKPGVVIGVGGCVATQEGDHIRERAPYVDVIFGPQTLHRLPEMIKQSQTDDAPVMDISFPEIEKFDRLPEPRAEGATAFVSILEHHHHHH”, the “soluble on expression in E. coli” value was “not soluble”.
On to “MGSDKIHHHHHHMRGRGMDIFISKKMRNFILLAQTNNIARAAEKIHMTASPFGKSIAALEEQIGYTLFTRKDNNISLNKAGQELYQKLFPVYQRLSAIDNEIHNSGRRSREIVIGIDNTYPTIIFDQLISLGDKYEGVTAQPVEFSENGVIDNLFDRQLDFIISPQHVSARVQELENLTISELPPLRLGFLVSRRYEERQEQELLQELPWLQMRFQNRANFEAMIDANMRPCGINPTIIYRPYSFMAKISAVERGHFLTVIPHFAWRLVNPATLKYFDAPHRPMYMQEYLYSIRNHRYTATMLQHIAEDRDGTSH”, for which the “soluble on expression in E. coli” value is recorded as “not soluble”.
Regarding “MTDKQAIREQMWQEMTEKKVGRFPFPLKGRIPNFKGAEQATRHLIQLEAYKQAKVVKVNPDSPQLPLRAQVLMDGKTLLVPTPRLKDGFILVKPEWVPEGEERKAVSLRNILSYGKVISLTEMPEIDLIVMGSVAVDRSGRRIGKGEGYADREYAIIRELGNRPVPVVTTVHQVQLVDVELPRDAYDVTVDWIATTEGLMQSVGAIEKPTGIVWSEVTEEELEAMPVLREIRELTKRQLEHHHHHH”, the “soluble on expression in E. coli” value was “soluble”.
“LRVSDGIAGKMTVLALKNTDERLRADKSVSVGFVLAALMWPELERHWKSNLQQGLKPAPALSDAINTMRETVERGWGVPQRFSATMREIWMFQPQFENRKGARPHKLFAQARFRAAYDFLLLRAETGNADRALAEWWTAFQTASTEQRSEMTKNEAAARHEKNEGQAKKRRRRRRKPKPKVVGTDWE”: the “soluble on expression in E. coli” value was “not soluble”.
With “MGSDKIHHHHHHMISNLYFVKLKNIGEHEFIKRYIKNYMDIKLLDDVFINEKRGYKVDGFKLSYAFPFMSLYDIGWKAISASTSDIIAKGVKPEFYLISLGLPPDFDVNKAEELIGGISDAIHYYGGRYVGGDLNDSDSNGWVDVFVEGEVLCDISDKVIDDGDLLVIGDYIGYTTNVFISYINNFNIQILPESLLKVKHPIVKKSLLFFMKKYCKFIKYSTDISDGLMVSLYKIVDNFNLGINITEIPIDKNVFNSLKLRLNLTELDILKYAGEEFLPLLIIDKNSPVKEMLAELQYLAFNPLIIGQVIHENRLITYKNTVIKNTGWDNFIGWY”, the “soluble on expression in E. coli” value was “not soluble”.
As for “MIGKKILGERYVTVSEAAEIMYNRAQIGELSYEQGCALDYLQKFAKLDKEEAKKLVEELISLGIDEKTAVKIADILPEDLDDLRAIYYKRELPENAEEILEIVRKYI”, the “soluble on expression in E. coli” value was “soluble”.
On to “MELTLHEARVIGCLLEKEVTTPEQYPLSLNALTLACNQKTSREPVLELTEAQVQDALDSLNKKRLISEQSGFGSRVVKYKHRFCNTEFSELQLSTAAVAIVCLLLLRGPQTPGELRTRSNRLHDFKDVLEVEACIKQLMERDKPVLTQLPREPGKRECRYTELFSQGSEQVSATSLSADSPSADSNSLNAQDRQQLEARVTQLEGQVAELKDKLESLIASLS”, for which the “soluble on expression in E. coli” value is on record as “soluble”.
With “AIAADKEAAFDDAVEERVINEEYKIWKKNTPFLYDLVMTHALEWPSLTAQWLPDVTRPDGKDFSIHRLVLGTHTSDEQNHLVIASVQLPNDDAQFDASHYDSEKGEFGGFGSVSGKIEIEIKINHEGEVNRARYMPQNPCIIATKTPSCDVLVFDYTKHPSKPDPSGECNPDLRLRGHQKEGYGLSWNPNLSGNLLSASDDHTICLWDISAVPKEGKVVDAKTIFTGHTAVVEDVSWHLLHESLFGSVADDQKLMIWDTRSNNTSKPSHSVDAHTAEVNCLSFNPYSEFILATGSADKTVALWDLRNLKLKLHSFESHKDEIFQVQWSPHNETILASSGTDRRLNVWDLSKIGEEQSPEDAEDGPPELLFIHGGHTAKISDFSWNPNEPWVICSVSEDNIMQVWQMAENIYNDEDTEGSVDPEGQGS”, the “soluble on expression in E. coli” value is “soluble”.
As for “MINIAVDNSIKITIETTVNAPIDMVWEAWTEPEHIKSWNHASDDWHTTEAKNDLRVGGRFVSKMEAKDGSFGFDFGGTYNKVRLYEFISYIMDDDRSVEITFKPEKDKTYIVESFEAEKSNPIDLQQKGWQAILDNFKKYVEENKLRGREKLEHHHHHH”, the “soluble on expression in E. coli” value is listed as “soluble”.
“MGSDKIHHHHHHAITVEENPNMMYMLVGSYATPEEEGIKVYNFDEQNGNSQYISGIKGISNPSFLIPSADGERIYAVGEDSGKSSTANAIKFDKEQKKLTLLNSQPTDGGAPCYITLSPSEKFVLTANYIGGSITVFPLDKDGKLKSETRLISFTGNSLDKERQTQPHLHCIEFTPDHKYLLASDLGTDQIHVFPVSENVTDGVSHSLLNESEEFNIKVESGSGPRHICFHPNQKFAYLINEISGKVIAFSYDKGKLNAIQYIEADTVGAKGSGDIHISPDGKFLYASNRLKADGIAIFSINQEEGTLTKTGYQLTGIHPRNFIISRNGRYLLVACRDSNSIQVFERDSQTGLLKDTGKTIKTNKPVCLKFTF”: the “soluble on expression in E. coli” value was “not soluble”.
With “MNIIDFNKPVKRSFRGNTAPAPPLEKVLTVILKTDVPVLMGICSDGLRSNSAILGGEFQAEYFSGSVLSGGGNVLVELSSELAFLETRFTLITQLGELINVECKGVLLMDEEGQQELQSGVWPISEGHYQCTCTPRFQVSLGPNDWLEKSAFIGKIDYIQRNETLISFYRMKL”, the “soluble on expression in E. coli” value was “not soluble”.
In the case of “CLKEGGDSNSEKFIVGTNATYPPFEFVDKRGEVVGFDIDLAREISNKLGKTLDVREFSFDALILNLKQHRIDAVITGMSITPSRLKEILMIPYYGEEIKHLVLVFKGENKHPLPLTQYRSVAVQTGTYQEAYLQSLSEVHIRSFDSTLEVLMEVMHGKSPVAVLEPSIAQVVLKDFPALSTATIDLPEDQWVLGYGIGVASDRPALALKIEAAVQEIRKEGVLAELEQKWGLNNLEHHHHHH”, the “soluble on expression in E. coli” value is given as “soluble”.
Turning to “MSLGPMRDLTWGQINFIHTTDTHGWIGGHLQEPQYSADWGDYISFTKHMRDQADKRGSDLLVIDTGDRIEGNGLYDASTPKGLFQYDIYAEADVDIMSTGNHELYKAYSADMEHNTTVPNYKNSYLASNLDYISFETGDRVPQAPRYKKFKTKNQGLNIVAFGFLFDFTGNANNTVVQPVEDTIKEDWFQEAIHEKPDLFVVIGHVGLRMEEFKVIYTAIRKQNWHIPIAFFGGHAHVRDTVQYDSKALAIASGRYFETIGWMSIDGIKKGGAKDVEAAASPTEGHHHHHH”, the “soluble on expression in E. coli” value is on record as “soluble”.
On to “MFDIPGLSTGDFHGFPSLLIQTPFSHAAISLFGGQLLSFVPSGGEEVIWLSPLVQPPPTAIRGGIPICWPYFGRQGQRDTMPAHGFVRTVPWQQVESCQENDGSLFLVLAPPPLKHLGLHLRMTLRIGRTLEQELATENISHAPISFTQALHNYFRVSNALQVTVQGLDGVEYLDKFEGYTQRHRQQGHWTLQDPRDPGRADRIYVDTSGHYVLVDPLFSRRIVLTTEGSHSLVVWNPGHAGASNMIDVADGWRDYLCLEPANAGPDEIELLPGARHVLRQSIAIAPL”, for which the “soluble on expression in E. coli” value is “soluble”.
For “MQTEHVILLNAQGVPTGTLEKYAAHTADTRLHLAFSSWLFNAKGQLLVTRRALSKKAWPGVWTNSVCGHPQLGESNEDAVIRRCRYELGVEITPPESIYPDFRARATDPSGIVENEVCPVFAARTTSALQINDDEVMDYQWCDLADVLHGIDATPWAFSPWMVMQATNREARKRLSAFTQLKLEHHHHHH”, the “soluble on expression in E. coli” value is “soluble”.
Turning to “MQRRLERFDAKLVQSGLDALLVTGQNNIYYLTDFWGTNATVFITKNRRLFLTDSRYTLIAKQSVHGFDIIESKDPLKDIVKFVEVDKLETIGFDNQVSFAYYQALQAIFEGYTLSPQTNFMEELRMIK”, the “soluble on expression in E. coli” value is listed as “soluble”.
With “MGSDKIHHHHHHMAKVVTLTATNGETIQFVEEVKAQGGMKDVMFSPNRDYVVAFLRDPADNETKERLEMITGQYRKRIFNQEGGEYLKKLYCWPTAVVEYNGKLGVVSPFYRDCFFFQYGSRNSDMLGIQGKEKDGKWFASANNRNKFLAPEELGDWMLHLKVCLMLARAVRRMHMAGLSHSDLGYKNCLIDPTTGQACLIDIDGLVVPGKHPPTVVGTPDFIAPEVVATSHLDVKDPNRKLPSRTTDLHALAVLIYMYLLYRHPLRGDKVFDPNDPQRDEELGMGKQALFVEHPTDRSNRIKTENIRPSEHPWKDTEKMPYTLTGTYLSDLFKRAFIDGLHNPQARPTADEWEQALVKTVDLLQPCSNASCEQKWYAFDNSKHPKCPFCGTAHHGKLPVLNLYSGTPDGKFRPDNHRIMVYSNQSLFKWHADNRVFPNEKLRSEDAKRVGYFVQHNGNWWLVNEALPEIYDVKAKQAIPIGGKVKLDDGGQILLQKGIGGRLLMVQMAG”, the “soluble on expression in E. coli” value is reported as “not soluble”.
Then “MGSDKIHHHHHHMDIRQLKTFIAIAEHGTFAKAADAVGLTPSAVSQQIQALESEVRGELFDRATRPIMLNGHGLQMLEAARTLVRDADNIIDAISGRAVSGTFTIGSVRSSALSLLPLSIVALKADYPDLRIKLQVANTDELLKDVMSGRLDCAMVAEYSGIPSALRWQPFINEPLLVIGPNGTPKMSGFDMLSKLPYVRFNSKFRLAQIIETELAKTRIVPNLIAEIDTIASVVSCVIHGLGVSVVPWIALRDIAAPIVAVQFGEPQILRPIGLLERRSGTRAQIIDRLHQNLARLSDPYGIPR”, with “not soluble”; and “MRREERNMDKLLISFLLSLFMVYFPPSDVVLPSQFEASTDSYVPMSSYPQETQSAKTPSPGSMHPAELIKEYSPLAQSVRQLSVKPLDEPLINRLEKALAVPVKYQSNYLRILEHHHHHH”, with “not soluble”.
